Measured values published in paper PMC4735289, “Seasonal induction of alternative principal pathway for rose flower scent” (Scientific Reports, 2016).

Key:
[1] = substrate: O=C(O)C(=O)Cc1ccccc1; assay: PPA decarboxylation; phenylacetaldehyde extracted and measured by GC-MS; type: biochemical, Rosa hybrid cultivar; conditions: 1 mM TPP, 5 mM MgCl2, 0.1 M citrate pH 6.0, 40 °C
Description: PPA decarboxylation; phenylacetaldehyde extracted and measured by GC-MS on […] | the kcat/Km value of […] was higher for PPA than for pyruvic acid (PA)

purified protein = substrate: CC(=O)C(=O)O; assay: purified protein; type: biochemical, Rosa hybrid cultivar; conditions: 1 mM TPP, 5 mM MgCl2, 0.1 M citrate pH 6.0, 40 °C

B1: RyPPDC (Rosa hybrid cultivar) (protein)
chain: MEPSTLIGATPRPTSALLPVVPAAACSGTLGRHLARRLVEIGVHDVFSVPGDFNLTLLDHLIAEPELNLIGCCNELNAGYAADGYARARGVGACVVTFTVGGLSVLNAIAGAYSENLPVICIVGGPNSNDYGTNRILHHTIGLPDFTQELRCFQTVTCHQAVVSHLEDAHELIDTAISTALKESKPVYISISCNLPAIPHPTFGRDPVPFFIAPKVSNQIGLEAAVEATAAFLNKAVKPVLVGGPKLRVAKAQKAFVELADASGYPMAVMPSGKGLVPEHHPHFIGTYWGAVSTSFCGEIVESADAYVFVGPIFNDYSSVGYSLLIKKEKAIIVEPNRVTIGNGPSFGWVFMGDFLTALAKKLKKNSTGMENYCRIFVPPGIPLKAQKDEPLRVNVLFKHIQEIVTPNTAIISETGDSWFNCQKLRLPENCGYEFQMQYGSIGWSVGATLGYAQGAKDKRVIACIGDGSFQVTAQDISTMIRCGQNTIIFLINNGGYTIEVEIHDGPYNVIKNWDYTGLVDAIHNGEGKCWTTKVRTEEDLTEAIAKATGEHKDSLCFIEVFVHKDDTRKELLEWGSRVSAANSRPPNPQ
notes: recombinant, baculovirus-insect cell (HighFive) expression, purified by DEAE, Phenyl HP and Superdex 200; cDNA from rose petals
Km [1]: 1.32 ± 0.06 mM | kcat [1]: 0.0297 ± 0.00033 s⁻¹ | Km (purified protein): 4.70 ± 0.32 mM | kcat (purified protein): 0.0215 ± 0.0005 s⁻¹
